Data: patent US20240117018A1

Assays:
Assay in all cases: cell-based or functional assay
[1] = target: HIV-1 Env of pseudovirus 3301.v1.c24 (HIV-1)
[2] = target: HIV-1 Env of pseudovirus 211-9 (HIV-1)
[3] = target: HIV-1 Env of pseudovirus 3103.v3.c10 (HIV-1)
[4] = target: HIV-1 Env of pseudovirus 3016.v5.c45 (HIV-1)
[5] = target: HIV-1 Env of pseudovirus X1254_c3 (HIV-1)
[6] = target: HIV-1 Env of pseudovirus P1981_C5_3 (HIV-1)
[7] = target: HIV-1 Env of pseudovirus T251-18 (HIV-1)
[8] = target: HIV-1 Env of pseudovirus X2131_C1_B5 (HIV-1)
[9] = target: HIV-1 Env of pseudovirus X2088_c9 (HIV-1)
[10] = target: HIV-1 Env of pseudovirus R2184.c04 (HIV-1)
[11] = target: HIV-1 Env of pseudovirus BJOX028000.10.3 (HIV-1)
[12] = target: HIV-1 Env of pseudovirus 0815.v3.c3 (HIV-1)
[13] = target: HIV-1 Env of pseudovirus T255-34 (HIV-1)
[14] = target: HIV-1 Env of pseudovirus A07412M1.vrc12 (HIV-1)
[15] = target: HIV-1 Env of pseudovirus C3347.c11 (HIV-1)
[16] = target: HIV-1 Env of pseudovirus BJOX010000.06.2 (HIV-1)
[17] = target: HIV-1 Env of pseudovirus 263-8 (HIV-1)
[18] = target: HIV-1 Env of pseudovirus T257-31 (HIV-1)
[19] = target: HIV-1 Env of pseudovirus 231966.c02 (HIV-1)
[20] = target: HIV-1 Env of pseudovirus BJOX009000.02.4 (HIV-1)
[21] = target: HIV-1 Env of pseudovirus R3265.c06 (HIV-1)
[22] = target: HIV-1 Env of pseudovirus 6041.v3.c23 (HIV-1)
[23] = target: HIV-1 Env of pseudovirus X1193_c1 (HIV-1)
[24] = target: HIV-1 Env of pseudovirus C1080.c03 (HIV-1)
[25] = target: HIV-1 Env of pseudovirus 6952.v1.c20 (HIV-1)
[26] = target: HIV-1 Env of pseudovirus P0402_c2_11 (HIV-1)
[27] = target: HIV-1 Env of pseudovirus 9004SS_A3_4 (HIV-1)
[28] = target: HIV-1 Env of pseudovirus 231965.c01 (HIV-1)
[29] = target: HIV-1 Env of pseudovirus 620345.c01 (HIV-1)
[30] = target: HIV-1 Env of pseudovirus 89-F1_2_25 (HIV-1)
[31] = target: HIV-1 Env of pseudovirus T278-50 (HIV-1)
[32] = target: HIV-1 Env of pseudovirus 6545.v4.c1 (HIV-1)
[33] = target: HIV-1 Env of pseudovirus BJOX025000.01.1 (HIV-1)
[34] = target: HIV-1 Env of pseudovirus 6540.v4.c1 (HIV-1)
[35] = target: HIV-1 Env of pseudovirus C4118.c09 (HIV-1)
[36] = target: HIV-1 Env of pseudovirus 191084 B7-19 (HIV-1)
[37] = target: HIV-1 Env of pseudovirus R1166.c01 (HIV-1)

PGT151 (antibody)
IC50 (Titer in TZM.bl cells) [1]: 0.002 mg/L
IC80 (Titer in TZM.bl cells) [1]: 0.019 mg/L
IC50 (Titer in TZM.bl cells) [2]: 0.002 mg/L
IC80 (Titer in TZM.bl cells) [2]: 0.01 mg/L
IC50 (Titer in TZM.bl cells) [3]: 0.014 mg/L
IC80 (Titer in TZM.bl cells) [3]: 0.202 mg/L
IC50 (Titer in TZM.bl cells) [4]: 0.174 mg/L
IC80 (Titer in TZM.bl cells) [4]: 40.7 mg/L
IC50 (Titer in TZM.bl cells) [5]: 0.309 mg/L
IC80 (Titer in TZM.bl cells) [5]: > 50 mg/L
IC50 (Titer in TZM.bl cells) [6]: 0.021 mg/L
IC80 (Titer in TZM.bl cells) [6]: > 50 mg/L
IC50 (Titer in TZM.bl cells) [7]: 0.327 mg/L
IC80 (Titer in TZM.bl cells) [7]: > 50 mg/L
IC50 (Titer in TZM.bl cells) [8]: 0.007 mg/L
IC80 (Titer in TZM.bl cells) [8]: 0.036 mg/L
IC50 (Titer in TZM.bl cells) [9]: > 50 mg/L
IC80 (Titer in TZM.bl cells) [9]: > 50 mg/L
IC50 (Titer in TZM.bl cells) [10]: > 50 mg/L
IC80 (Titer in TZM.bl cells) [10]: > 50 mg/L
IC50 (Titer in TZM.bl cells) [11]: > 50 mg/L
IC80 (Titer in TZM.bl cells) [11]: > 50 mg/L
IC50 (Titer in TZM.bl cells) [12]: > 50 mg/L
IC80 (Titer in TZM.bl cells) [12]: > 50 mg/L
IC50 (Titer in TZM.bl cells) [13]: 0.002 mg/L
IC80 (Titer in TZM.bl cells) [13]: 0.01 mg/L
IC50 (Titer in TZM.bl cells) [14]: 0.246 mg/L
IC80 (Titer in TZM.bl cells) [14]: > 50 mg/L
IC50 (Titer in TZM.bl cells) [15]: > 50 mg/L
IC80 (Titer in TZM.bl cells) [15]: > 50 mg/L
IC50 (Titer in TZM.bl cells) [16]: > 50 mg/L
IC80 (Titer in TZM.bl cells) [16]: > 50 mg/L
neutralization IC50 [17]: > 50 mg/L
neutralization IC80 [17]: > 50 mg/L
neutralization IC50 [18]: 0.003 mg/L
neutralization IC80 [18]: 0.01 mg/L
IC50 (Titer in TZM.bl cells) [19]: 0.025 mg/L
IC80 (Titer in TZM.bl cells) [19]: 0.183 mg/L
IC50 (Titer in TZM.bl cells) [20]: > 50 mg/L
IC80 (Titer in TZM.bl cells) [20]: > 50 mg/L
IC50 (Titer in TZM.bl cells) [21]: > 50 mg/L
IC80 (Titer in TZM.bl cells) [21]: > 50 mg/L
IC50 (Titer in TZM.bl cells) [22]: 0.004 mg/L
IC80 (Titer in TZM.bl cells) [22]: 0.024 mg/L
IC50 (Titer in TZM.bl cells) [23]: 0.004 mg/L
IC80 (Titer in TZM.bl cells) [23]: 0.027 mg/L
IC50 (Titer in TZM.bl cells) [24]: > 50 mg/L
IC80 (Titer in TZM.bl cells) [24]: > 50 mg/L
IC50 (Titer in TZM.bl cells) [25]: 49.2 mg/L
IC80 (Titer in TZM.bl cells) [25]: > 50 mg/L
IC50 (Titer in TZM.bl cells) [26]: < 0.001 mg/L
IC80 (Titer in TZM.bl cells) [26]: 0.004 mg/L
neutralization IC50 [27]: 0.003 mg/L
neutralization IC80 [27]: 0.015 mg/L
IC50 (Titer in TZM.bl cells) [28]: < 0.001 mg/L
IC80 (Titer in TZM.bl cells) [28]: 0.012 mg/L
IC50 (Titer in TZM.bl cells) [29]: > 50 mg/L
IC80 (Titer in TZM.bl cells) [29]: > 50 mg/L
IC50 (Titer in TZM.bl cells) [30]: 22.9 mg/L
IC80 (Titer in TZM.bl cells) [30]: > 50 mg/L
IC50 (Titer in TZM.bl cells) [31]: 0.13 mg/L
IC80 (Titer in TZM.bl cells) [31]: > 50 mg/L
IC50 (Titer in TZM.bl cells) [32]: 0.004 mg/L
IC80 (Titer in TZM.bl cells) [32]: 0.026 mg/L
IC50 (Titer in TZM.bl cells) [33]: > 50 mg/L
IC80 (Titer in TZM.bl cells) [33]: > 50 mg/L
IC50 (Titer in TZM.bl cells) [34]: 0.006 mg/L
IC80 (Titer in TZM.bl cells) [34]: 0.03 mg/L
IC50 (Titer in TZM.bl cells) [35]: > 50 mg/L
IC80 (Titer in TZM.bl cells) [35]: > 50 mg/L
neutralization IC50 [36]: 0.004 mg/L
neutralization IC80 [36]: 0.016 mg/L
IC50 (Titer in TZM.bl cells) [37]: > 50 mg/L
IC80 (Titer in TZM.bl cells) [37]: > 50 mg/L
